One molecule from PMC4909201 (2016) can be followed below.

For this assay, the target named is thrombin (Homo sapiens, UniProt P00734). Put plainly: SPR.

Non-standard residues stand in square brackets, D forms with d. No end group written: not given here. *: point of attachment. Biotin = O=C1N[C@H]2[C@H](CS[C@H]2CCCCC(=O)*)N1; pY = N[C@@H](Cc1ccc(OP(=O)(O)O)cc1)C(=O)O

As usually defined, the Kd is the constant that tells how readily two partners part at equilibrium. Lower therefore signals tighter binding. As to Biotin-DEGDTDL[pY]D[pY][pY]PEEDTEG [GpIbα269-286ppp], the Kd came to 229 nM.
